The assay concerns the target recombinant His-p27 (full-length p27Kip1, C-terminal histidine tag) (human) (UniProt P46527). The assay can be described thus: phage-ELISA, SH3-displaying phage on recombinant His-p27 (multivalent phage, which would enhance binding).

Chain of recombinant His-p27 (full-length p27Kip1, C-terminal histidine tag) (human) (P46527 whole entry): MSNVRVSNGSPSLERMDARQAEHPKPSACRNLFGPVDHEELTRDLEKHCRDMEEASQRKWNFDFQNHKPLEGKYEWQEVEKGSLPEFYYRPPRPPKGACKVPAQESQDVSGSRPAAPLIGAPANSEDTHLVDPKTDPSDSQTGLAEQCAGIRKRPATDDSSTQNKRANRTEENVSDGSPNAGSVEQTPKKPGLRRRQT

As usually defined, the Kd is the concentration at which binding is half-saturated. As for “SH3 domain of Brk displayed on phage (from UniProt Q13882 12-70)”, the Kd amounted to 250 nM.

Values taken from US20170065662A1.
